The assay concerns the target low-density lipoprotein (LDL), 125I-labelled. The assay can be described thus: cell-based or functional assay.

With “human LDL-receptor (from UniProt P01130 22-860)”, the LDL uptake (40 ug/ml 125I-LDL, 4 h, 37 C, FH fibroblasts infected with LDL-receptor adenovirus) was found to be 20 fold.
Regarding “human LRP5 (LDL-receptor related protein-5), isoform 1 (from UniProt O75197 32-1615)”, the LDL uptake (40 ug/ml 125I-LDL, 4 h, 37 C, FH fibroblasts infected with LRP5 adenovirus) came to 60 % increase.

For the origin of these results see patent US6545137.
